Measured values: PMC6250670

Biological target: MucR from Brucella abortus (wild-type full-length protein) (Brucella abortus)
Experiment: SEC-MALS

Substance: MucR from Brucella abortus (wild-type full-length protein) (natural protein)
- stoichiometry N: 10.4
